Values quoted from earlier work in PMC8910571.

Biological target: T1, PTK7 (tyrosine kinase 7 protein) (UniProt Q13308)
T1 sequence: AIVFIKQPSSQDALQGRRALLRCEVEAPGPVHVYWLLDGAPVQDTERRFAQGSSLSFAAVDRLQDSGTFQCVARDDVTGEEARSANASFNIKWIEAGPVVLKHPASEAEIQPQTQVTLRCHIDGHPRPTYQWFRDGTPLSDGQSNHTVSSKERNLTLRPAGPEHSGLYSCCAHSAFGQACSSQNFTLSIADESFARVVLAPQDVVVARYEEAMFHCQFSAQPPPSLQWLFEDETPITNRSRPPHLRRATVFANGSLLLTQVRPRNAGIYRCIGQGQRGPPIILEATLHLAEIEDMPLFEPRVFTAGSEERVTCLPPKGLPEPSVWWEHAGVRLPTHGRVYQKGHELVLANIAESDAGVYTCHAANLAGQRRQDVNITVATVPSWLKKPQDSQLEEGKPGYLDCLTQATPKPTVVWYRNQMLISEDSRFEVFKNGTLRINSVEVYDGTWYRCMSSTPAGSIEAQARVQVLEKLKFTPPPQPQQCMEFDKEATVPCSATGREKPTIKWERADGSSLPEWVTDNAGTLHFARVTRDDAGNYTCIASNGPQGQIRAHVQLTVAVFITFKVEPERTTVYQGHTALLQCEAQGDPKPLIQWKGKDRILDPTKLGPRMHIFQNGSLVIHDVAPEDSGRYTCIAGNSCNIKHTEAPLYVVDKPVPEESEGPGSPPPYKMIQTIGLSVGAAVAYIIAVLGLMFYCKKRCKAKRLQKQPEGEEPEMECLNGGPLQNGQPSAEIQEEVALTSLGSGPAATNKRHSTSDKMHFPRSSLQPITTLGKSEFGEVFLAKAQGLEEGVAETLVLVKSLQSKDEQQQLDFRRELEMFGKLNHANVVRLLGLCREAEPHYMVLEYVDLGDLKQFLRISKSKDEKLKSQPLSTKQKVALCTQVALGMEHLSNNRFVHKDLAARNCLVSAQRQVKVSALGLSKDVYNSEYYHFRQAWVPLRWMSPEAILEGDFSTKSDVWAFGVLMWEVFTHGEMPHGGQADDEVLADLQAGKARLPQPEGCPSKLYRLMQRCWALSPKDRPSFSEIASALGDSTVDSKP

ATCTAACTGCTGCGCCGCCGGGAAAATACTGTACGGTTAGA [Sgc8-c]
Kd: 780 pM
